Measurements published in patent US20040006018A1 (Genentech, published 2004).

Columns and labels:
[1] = target: T1, Mouse LIF receptor on mouse M1 cells (LIF receptor complex with gp130) (mouse, UniProt P42703 44-1092; Q00560 23-917); assay: conditioned medium competing for 125I-human LIF binding to M1 cells
T1 construct: whole, on cells; Endogenous receptor on M1 cells; also called LIFRβ

[2] = target: T2, Human LIF receptor on human Hela cells (human, UniProt P42702 45-1097); assay: conditioned medium competing for 125I-human LIF binding to Hela cells
T2 construct: whole, on cells; Endogenous receptor on cells; other subunits (gp130) not examined on these cells
T2 sequence (looked up): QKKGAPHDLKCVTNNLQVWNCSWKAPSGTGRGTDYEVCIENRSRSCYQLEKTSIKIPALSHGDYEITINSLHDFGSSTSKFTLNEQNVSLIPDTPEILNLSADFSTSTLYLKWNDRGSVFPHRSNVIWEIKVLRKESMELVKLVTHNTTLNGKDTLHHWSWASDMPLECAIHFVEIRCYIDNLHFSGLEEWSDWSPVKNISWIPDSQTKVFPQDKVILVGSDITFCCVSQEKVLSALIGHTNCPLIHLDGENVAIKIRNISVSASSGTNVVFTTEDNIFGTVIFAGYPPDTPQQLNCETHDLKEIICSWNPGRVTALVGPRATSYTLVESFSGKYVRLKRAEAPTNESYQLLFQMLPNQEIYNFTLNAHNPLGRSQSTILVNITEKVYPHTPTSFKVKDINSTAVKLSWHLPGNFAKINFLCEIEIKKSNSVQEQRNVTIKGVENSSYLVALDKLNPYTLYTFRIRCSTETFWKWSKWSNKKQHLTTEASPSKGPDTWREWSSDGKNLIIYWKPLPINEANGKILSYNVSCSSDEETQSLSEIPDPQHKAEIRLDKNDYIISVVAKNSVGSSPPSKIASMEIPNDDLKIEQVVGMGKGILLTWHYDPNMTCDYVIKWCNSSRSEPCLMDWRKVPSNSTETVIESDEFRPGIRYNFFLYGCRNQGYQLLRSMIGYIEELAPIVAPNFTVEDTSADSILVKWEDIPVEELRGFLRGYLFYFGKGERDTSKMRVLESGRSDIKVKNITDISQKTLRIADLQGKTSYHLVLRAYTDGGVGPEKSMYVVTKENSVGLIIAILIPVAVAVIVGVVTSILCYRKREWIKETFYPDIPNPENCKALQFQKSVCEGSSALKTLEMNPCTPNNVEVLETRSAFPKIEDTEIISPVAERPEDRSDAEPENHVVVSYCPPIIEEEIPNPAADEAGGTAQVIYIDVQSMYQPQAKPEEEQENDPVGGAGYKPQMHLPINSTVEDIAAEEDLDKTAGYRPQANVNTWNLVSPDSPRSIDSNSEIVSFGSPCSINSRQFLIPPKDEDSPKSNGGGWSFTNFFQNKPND

[3] = target: T3, OSM specific receptor (oncostatin M receptor) on human WI-26 VA4 cells (human, UniProt Q99650 28-979); assay: competition for 125I-human OSM binding to WI-26 VA4 cells
T3 construct: whole, on cells; Endogenous receptor on cells; further subunits not described for this assay; also called specific OSM Receptor; WI-26 cells
T3 sequence (looked up): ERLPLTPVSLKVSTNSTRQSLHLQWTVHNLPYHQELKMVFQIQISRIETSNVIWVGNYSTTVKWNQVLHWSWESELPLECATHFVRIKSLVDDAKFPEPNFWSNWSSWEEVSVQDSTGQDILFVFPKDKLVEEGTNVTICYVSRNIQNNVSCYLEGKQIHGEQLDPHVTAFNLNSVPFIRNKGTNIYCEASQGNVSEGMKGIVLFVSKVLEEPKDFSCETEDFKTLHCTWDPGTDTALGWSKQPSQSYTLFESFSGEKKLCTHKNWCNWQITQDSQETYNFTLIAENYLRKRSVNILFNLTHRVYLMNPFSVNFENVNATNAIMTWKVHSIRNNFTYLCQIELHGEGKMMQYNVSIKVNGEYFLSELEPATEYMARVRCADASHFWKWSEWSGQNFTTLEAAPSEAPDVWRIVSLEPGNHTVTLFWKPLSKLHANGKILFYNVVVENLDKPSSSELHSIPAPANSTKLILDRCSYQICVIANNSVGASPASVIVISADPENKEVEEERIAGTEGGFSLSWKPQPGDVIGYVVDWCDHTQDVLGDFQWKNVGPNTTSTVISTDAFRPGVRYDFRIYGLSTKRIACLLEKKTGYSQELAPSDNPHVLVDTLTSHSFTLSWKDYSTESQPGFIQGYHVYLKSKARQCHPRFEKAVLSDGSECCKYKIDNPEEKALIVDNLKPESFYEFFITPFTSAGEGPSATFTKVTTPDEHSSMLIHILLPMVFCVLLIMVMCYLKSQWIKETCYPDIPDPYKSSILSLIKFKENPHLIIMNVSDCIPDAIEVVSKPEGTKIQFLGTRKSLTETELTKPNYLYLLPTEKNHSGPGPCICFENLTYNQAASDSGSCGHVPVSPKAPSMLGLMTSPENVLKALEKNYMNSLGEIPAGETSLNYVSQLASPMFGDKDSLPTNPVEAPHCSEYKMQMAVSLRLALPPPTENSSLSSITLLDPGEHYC

T1 sequence (Q00560 23-917, one chain of several): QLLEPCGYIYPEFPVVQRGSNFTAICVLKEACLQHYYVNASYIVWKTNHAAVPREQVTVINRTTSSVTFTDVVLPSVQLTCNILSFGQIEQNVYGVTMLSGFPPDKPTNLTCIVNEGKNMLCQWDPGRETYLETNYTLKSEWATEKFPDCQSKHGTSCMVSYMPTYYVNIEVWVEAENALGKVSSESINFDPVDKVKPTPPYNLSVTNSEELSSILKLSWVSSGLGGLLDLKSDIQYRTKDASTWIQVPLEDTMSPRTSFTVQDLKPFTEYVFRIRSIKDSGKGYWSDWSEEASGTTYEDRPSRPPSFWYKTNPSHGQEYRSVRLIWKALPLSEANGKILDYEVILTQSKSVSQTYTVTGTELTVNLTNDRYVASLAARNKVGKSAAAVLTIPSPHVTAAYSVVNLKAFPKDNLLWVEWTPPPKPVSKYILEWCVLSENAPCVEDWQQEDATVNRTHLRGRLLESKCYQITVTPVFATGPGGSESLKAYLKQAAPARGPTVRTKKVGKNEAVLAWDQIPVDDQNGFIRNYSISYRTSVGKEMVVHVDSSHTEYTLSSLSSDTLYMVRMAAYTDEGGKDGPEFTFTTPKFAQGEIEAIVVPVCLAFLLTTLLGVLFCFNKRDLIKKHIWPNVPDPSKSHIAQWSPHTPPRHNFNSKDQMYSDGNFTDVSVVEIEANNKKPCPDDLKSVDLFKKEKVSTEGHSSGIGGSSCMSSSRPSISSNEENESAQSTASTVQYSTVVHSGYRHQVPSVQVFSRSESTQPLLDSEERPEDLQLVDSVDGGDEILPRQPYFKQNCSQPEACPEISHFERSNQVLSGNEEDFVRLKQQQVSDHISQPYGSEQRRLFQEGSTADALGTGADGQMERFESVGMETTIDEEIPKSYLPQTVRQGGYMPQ

binding result [1]: binds
binding result [2]: binds
binding result [3]: no binding
B1: Human CT-1 (conditioned medium from human 293 cells transfected with pRK5.hu.CT1) (ligand)
chain: MSRREGSLEDPQTDSSVSLLPHLEAKIRQTHSLAHLLTKYAEQLLQEYVQLQGDPFGLPSFSPPRLPVAGLSAPAPSHAGLPVHERLRLDAAALAALPPLLDAVCRRQAELNPRAPRLLRRLEDAARQARALGAAVEALLAALGAANRGPRAEPPAATASAASATGVFPAKVLGLRVCGLYREWLSRTEGDLGQLLPGGSA
notes: Not purified: tested as clarified conditioned medium (concentrated 10 fold and added at a 3-fold dilution for Hela cells; unconcentrated for WI-26 cells); also called human cardiotrophin-1; hCT-1
